What all share (test): Scatchard binding assay
Assay [1] concerns the target T1, G-CSF receptor (KU-1 cells) (Homo sapiens, UniProt Q99062).
T1 chain: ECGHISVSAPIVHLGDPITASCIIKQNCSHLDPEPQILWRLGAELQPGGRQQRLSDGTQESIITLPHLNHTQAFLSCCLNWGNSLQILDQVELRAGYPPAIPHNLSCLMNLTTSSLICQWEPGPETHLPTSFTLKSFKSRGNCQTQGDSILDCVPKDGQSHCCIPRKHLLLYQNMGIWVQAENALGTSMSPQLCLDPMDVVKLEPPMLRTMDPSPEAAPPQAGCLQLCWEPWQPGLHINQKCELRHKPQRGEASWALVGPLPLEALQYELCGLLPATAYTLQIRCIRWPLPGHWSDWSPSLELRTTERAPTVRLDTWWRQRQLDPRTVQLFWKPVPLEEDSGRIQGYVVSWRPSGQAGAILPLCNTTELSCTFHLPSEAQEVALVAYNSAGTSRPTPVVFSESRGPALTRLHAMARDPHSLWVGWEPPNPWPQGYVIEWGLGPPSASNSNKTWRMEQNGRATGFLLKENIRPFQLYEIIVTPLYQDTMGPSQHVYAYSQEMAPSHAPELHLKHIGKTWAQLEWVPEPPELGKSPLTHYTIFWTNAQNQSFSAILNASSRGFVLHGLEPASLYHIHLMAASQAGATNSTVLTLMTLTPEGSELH

In assay [2] the target is T2, G-CSF receptor (NBT-2 cells) (Homo sapiens, UniProt Q99062).
T2 chain: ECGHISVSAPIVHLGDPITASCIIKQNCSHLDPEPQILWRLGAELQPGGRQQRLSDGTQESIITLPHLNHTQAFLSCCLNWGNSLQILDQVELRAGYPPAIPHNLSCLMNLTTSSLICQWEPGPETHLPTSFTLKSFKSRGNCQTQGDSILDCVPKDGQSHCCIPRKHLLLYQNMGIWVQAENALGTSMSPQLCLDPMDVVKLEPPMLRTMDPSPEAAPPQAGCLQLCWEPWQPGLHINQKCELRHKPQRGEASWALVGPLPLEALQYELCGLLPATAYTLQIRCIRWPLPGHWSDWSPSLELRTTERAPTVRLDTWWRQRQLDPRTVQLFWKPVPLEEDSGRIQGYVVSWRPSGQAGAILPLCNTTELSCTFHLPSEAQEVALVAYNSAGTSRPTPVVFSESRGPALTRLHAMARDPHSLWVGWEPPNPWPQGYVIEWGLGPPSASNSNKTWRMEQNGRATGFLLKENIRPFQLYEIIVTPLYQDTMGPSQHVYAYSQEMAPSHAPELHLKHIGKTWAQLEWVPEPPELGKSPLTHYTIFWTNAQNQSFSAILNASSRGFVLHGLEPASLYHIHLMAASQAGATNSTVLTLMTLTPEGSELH

The target in assay [3] is T3, G-CSF receptor (KK cells) (Homo sapiens, UniProt Q99062).
T3 chain: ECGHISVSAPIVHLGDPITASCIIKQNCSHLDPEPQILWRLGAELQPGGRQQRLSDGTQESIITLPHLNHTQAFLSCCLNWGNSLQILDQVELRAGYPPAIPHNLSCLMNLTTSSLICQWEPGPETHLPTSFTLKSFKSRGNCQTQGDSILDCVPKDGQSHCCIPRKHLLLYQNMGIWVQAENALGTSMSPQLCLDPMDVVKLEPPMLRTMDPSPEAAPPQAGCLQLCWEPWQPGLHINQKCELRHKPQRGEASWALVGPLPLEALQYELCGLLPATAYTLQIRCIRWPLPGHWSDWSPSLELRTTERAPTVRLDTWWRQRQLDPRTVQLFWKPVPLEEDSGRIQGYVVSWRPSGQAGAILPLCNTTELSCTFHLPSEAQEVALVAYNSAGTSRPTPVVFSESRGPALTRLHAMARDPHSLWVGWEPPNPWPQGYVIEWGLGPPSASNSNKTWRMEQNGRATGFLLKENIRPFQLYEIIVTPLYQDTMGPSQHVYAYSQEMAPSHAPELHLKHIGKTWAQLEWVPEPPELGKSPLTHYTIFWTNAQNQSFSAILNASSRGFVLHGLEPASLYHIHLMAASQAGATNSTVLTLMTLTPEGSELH

The Kd is the free concentration of one partner at which half of the binding sites on the other are occupied at equilibrium, for simple one-to-one binding. A low value points to higher affinity.

B1: G-CSF (protein)
chain: TPLGPASSLPQSFLLKCLEQVRKIQGDGAALQEKLVSECATYKLCHPEELVLLGHSLGIPWAPLSSCPSQALQLAGCLSQLHSGLFLYQGLLQALEGISPELGPTLDTLQLDVADFATTIWQQMEELGMAPALQPTQGAMPAFASAFQRRAGGVLVASHLQSFLEVSYRVLRHLAQP
As for B1, the results for the Kd in assay [1], in assay [2] and in assay [3] were 490 pM, 340 pM and 103 pM, respectively.

These data come from publication PMC2223497 (2026).
